From US20100047228

Biological target: delta-plasminogen
Sequence (chain, as listed by the source mutant): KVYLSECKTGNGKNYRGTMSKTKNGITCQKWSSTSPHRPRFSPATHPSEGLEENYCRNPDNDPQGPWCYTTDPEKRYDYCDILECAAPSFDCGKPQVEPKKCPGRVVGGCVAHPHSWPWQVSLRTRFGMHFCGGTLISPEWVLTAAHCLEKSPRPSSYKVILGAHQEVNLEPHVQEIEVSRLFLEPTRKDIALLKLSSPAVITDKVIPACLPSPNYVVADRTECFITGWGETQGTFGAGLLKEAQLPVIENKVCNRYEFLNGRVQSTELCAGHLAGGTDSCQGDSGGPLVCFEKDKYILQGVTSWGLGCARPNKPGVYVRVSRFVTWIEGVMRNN

B1: tissue Plasminogen Activator (protein)
chain: SYQVICRDEKTQMIYQQHQSWLRPVLRSNRVEYCWCNSGRAQCHSVPVKSCSEPRCFNGGTCQQALYFSDFVCQCPEGFAGKCCEIDTRATCYEDQGISYRGTWSTAESGAECTNWNSSALAQKPYSGRRPDAIRLGLGNHNYCRNPDRDSKPWCYVFKAGKYSSEFCSTPACSEGNSDCYFGNGSAYRGTHSLTESGASCLPWNSMILIGKVYTAQNPSAQALGLGKHNYCRNPDGDAKPWCHVLKNRRLTWEYCDVPSCSTCGLRQYSQPQFRIKGGLFADIASHPWQAAIFAKHRRSPGERFLCGGILISSCWILSAAHCFQERFPPHHLTVILGRTYRVVPGEEEQKFEVEKYIVHKEFDDDTYDNDIALLQLKSDSSRCAQESSVVRTVCLPPADLQLPDWTECELSGYGKHEALSPFYSERLKEAHVRLYPSSRCTSQHLLNRTVTDNMLCAGDTRSGGPQANLHDACQGDSGGPLVCLNDGRMTLVGIISWGLGCGQKDVPGVYTKVTNYLDWIRDNMRP
conversion of one-chain delta-plasminogen into two-chain delta-plasmin (reduced SDS-PAGE): delta-plasminogen indeed can be activated by all three plasminogen activators
